Data reported in patent publication US20240279281A1, “Peptide Inhibitors of Interleukin-23 Receptor” (Janssen Pharmaceutica NV, priority 2023, published 2024).
Starred links: 1 amine or outer side, 2 acyl side, 3 side chain; linkers in the order of their positions; H or OH if unused. Positions of bridges follow the written chain, without caps; N, C: chain ends. Non-standard residues stand in square brackets, D forms with d. No end group written: not given here. X5 = 2‑amino‑3‑(3-carbamoyl-1H-pyrazol-4-yl)propanoic acid, NC(=O)c1n[nH]cc1CC(N[*:1])C(=O)[*:2]; Trp(7-Me) = Cc1cccc2c(C[C@H](N)C(=O)O)c[nH]c12; 3Pal = N[C@@H](Cc1cccnc1)C(=O)O; Pen = CC(C)(S)[C@H](N)C(=O)O; Thp = NC1(C(=O)O)CCOCC1; Sar = CNCC(=O)O

T1: interleukin-23 receptor (IL-23R), Q5VWK5
T1 chain: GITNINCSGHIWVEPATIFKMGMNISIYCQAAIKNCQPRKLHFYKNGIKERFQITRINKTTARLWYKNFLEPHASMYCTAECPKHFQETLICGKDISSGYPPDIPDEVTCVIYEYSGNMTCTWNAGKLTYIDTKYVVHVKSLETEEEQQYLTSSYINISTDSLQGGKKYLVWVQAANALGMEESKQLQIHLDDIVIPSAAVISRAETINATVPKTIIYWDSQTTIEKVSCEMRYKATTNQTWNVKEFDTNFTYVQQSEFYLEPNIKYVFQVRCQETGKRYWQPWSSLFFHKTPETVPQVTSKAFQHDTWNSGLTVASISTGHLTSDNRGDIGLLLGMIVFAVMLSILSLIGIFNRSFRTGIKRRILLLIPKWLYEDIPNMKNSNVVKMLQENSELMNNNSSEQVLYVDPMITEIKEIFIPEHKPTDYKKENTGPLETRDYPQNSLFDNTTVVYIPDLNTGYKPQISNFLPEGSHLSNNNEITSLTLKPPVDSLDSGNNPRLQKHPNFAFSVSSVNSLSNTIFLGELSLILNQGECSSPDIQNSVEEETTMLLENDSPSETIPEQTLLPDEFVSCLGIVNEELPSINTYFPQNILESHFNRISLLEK


Biological target: T1, interleukin-23 receptor (IL-23R), Q5VWK5
Assay: cell-based or functional assay

Binder | PBMC pSTAT3 IC50 [nM] | IL23R Reporter Assay IC50 [nM]
R[Pen]NT[Trp(7-Me)]K(Ac)[Pen][2‑amino‑3‑(4-(2-aminoethoxy)phenyl)propanoic acid][2‑amino‑3‑(6-hydroxynaphthalen-2-yl)propanoic acid][Thp]KN[3Pal][Sar] (not fully specified (bridges); ends and bridges not checked; also: K11: lipidated lysine, lipid not given here) [SEQ ID NO: 86] | – | < 10
R[Pen]NT[Trp(7-Me)]K[Pen][2‑amino‑3‑(4-(2-aminoethoxy)phenyl)propanoic acid][2‑amino‑3‑(6-hydroxynaphthalen-2-yl)propanoic acid][Thp]EN[3Pal][Sar] (not fully specified (bridges); ends and bridges not checked; also: K6: lipidated lysine, lipid not given here) [SEQ ID NO: 84] | – | < 10
R[Pen]NT[Trp(7-Me)]K(Ac)[Pen][2‑amino‑3‑(4-(2-aminoethoxy)phenyl)propanoic acid][2‑amino‑3‑(6-(3-(trifluoromethyl)-1H-pyrazol-4-yl)naphthalen-2-yl)propanoic acid][Thp]EN[Thp] (not fully specified (bridges); ends and bridges not checked) [SEQ ID NO: 434] | > 1 | –
R[Pen]NT[Trp(7-Me)]K(Ac)[Pen][2‑amino‑3‑(4-(2-aminoethoxy)phenyl)propanoic acid][2‑amino‑3‑(6-hydroxynaphthalen-2-yl)propanoic acid][Thp]KN[3Pal][Sar] (not fully specified (bridges); ends and bridges not checked; also: K11: lipidated lysine, lipid not given here) [SEQ ID NO: 87] | – | < 10
R[Pen]NT[Trp(7-Me)]K(Ac)[Pen][N,N,N‑trimethylethanaminium][2‑amino‑3‑(6-hydroxynaphthalen-2-yl)propanoic acid][Thp]EN[3Pal][Sar] (disulfide 2-7 (inferred); not fully specified; ends not checked) [SEQ ID NO: 435] | < 0.1 | –

More lines, now with the values ahead:

PBMC pSTAT3 IC50 [nM] | IL23R Reporter Assay IC50 [nM] | Binder
> 1 | – | R[Pen]NT[Trp(7-Me)]K(Ac)[Pen][2‑amino‑3‑(4-(2-aminoethoxy)phenyl)propanoic acid][2‑amino‑3‑(5-bromonaphthalen-2-yl)propanoic acid][Thp]EN[Thp] (disulfide 2-7 (inferred); ends not checked) [SEQ ID NO: 443]
> 1 | – | R[Pen]NT[Trp(7-Me)]K(Ac)[Pen][2‑amino‑3‑(4-(2-aminoethoxy)phenyl)propanoic acid][2‑amino‑3‑(6-hydroxynaphthalen-2-yl)propanoic acid][Thp]EN[X5][Sar] (disulfide 2-7 (inferred); ends not checked) [SEQ ID NO: 440]
